# In patent US20260209372A1 (PROMETHEUS BIOSCIENCES, published 2026):
# Positions count from the first letter of the chain named.
# T1: recombinant human CD30L (human, UniProt P32971 63-234)
# T1 construct: Recombinant or purified protein of the ELISA, BLI, Carterra and KinExA assays; construct not described; also called rhCD30L; huCD30L
# T1 sequence (looked up): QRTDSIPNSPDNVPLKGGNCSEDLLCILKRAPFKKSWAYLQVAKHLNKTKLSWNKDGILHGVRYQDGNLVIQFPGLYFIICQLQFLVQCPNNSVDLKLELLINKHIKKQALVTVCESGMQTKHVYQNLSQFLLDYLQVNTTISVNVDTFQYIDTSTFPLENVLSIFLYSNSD
# T2: human CD30L expressed on B16 cells (human, UniProt P32971 1-234)
# T2 construct: whole, on cells; B16 cell line transfected to express human CD30L; also called B16-huCD30L; hCD30L B16
# T2 sequence (looked up): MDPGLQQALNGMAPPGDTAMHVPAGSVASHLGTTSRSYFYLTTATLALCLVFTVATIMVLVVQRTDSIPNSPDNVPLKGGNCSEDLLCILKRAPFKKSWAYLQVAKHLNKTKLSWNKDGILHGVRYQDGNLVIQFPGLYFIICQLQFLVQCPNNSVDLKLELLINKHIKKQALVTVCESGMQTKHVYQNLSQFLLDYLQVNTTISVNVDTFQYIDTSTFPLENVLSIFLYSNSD
# B1: Clone 2 (antibody, V domains shown)
# VH: EVQLVESGGGLVQPGRSLRLSCAASGFNFDDYAMHWVRQAPGKGLEWVSGISWRSGNIGYAGSVKGRFTISRDNAKNSLYLQMNSLRPEDSALYYCAKDKGIGFNWNYEGFDYWGQGTLVTVSS
# VL: DIQMTQSPSSLSASVGDRVTITCRASQGISNHLAWFQQKPGKAPKSLIYAASSLQSGVPSKFSGSGSGTDFTLTISSLQPEDFATYYCQQYVTYPLTFGGGTKVEIK
# notes: also called anti-CD30L antibody clone 2 (parental)
# B2: Clone 4 (antibody, V domains shown)
# VH: QVQLVESGGGVVQPGRSLRLSCAASGFPFSSYGMHWVRQAPGKGLEWVTFIWFDGNNKDYADSVKGRFSVSRDNSKNTLYLQMNSLRADDTAVYYCARNGVYYGSGAYVDYWGQGTLVTVSS
# VL: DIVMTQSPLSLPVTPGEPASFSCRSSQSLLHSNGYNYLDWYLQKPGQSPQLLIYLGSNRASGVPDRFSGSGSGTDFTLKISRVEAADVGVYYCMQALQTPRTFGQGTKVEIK
# notes: hybridoma clone
# B3: Clone 3 (antibody, V domains shown)
# VH: QVQLQESGPGLVKPSETLSLTCTVSGGSISGYYWSWIRQPPVKGLEWIGYIFYSGYTKYNPSLKSRVTISVDTSKNQFSLKLSSVTAADTAVYYCARDRWDFDYWGQGALVTVSS
# VL: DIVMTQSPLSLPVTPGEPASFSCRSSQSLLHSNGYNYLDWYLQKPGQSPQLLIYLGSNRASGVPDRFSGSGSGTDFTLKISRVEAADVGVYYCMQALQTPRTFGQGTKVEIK
# notes: hybridoma clone
# B4: Clone 1 (antibody, V domains shown)
# VH: B3 VH
# VL: AIQMTQSPSYLSASVGDRVTIACRASQGIRNNLGWYQQKPGKAPKLLIYAESSLQSGVPSRFSGSGSGTDFTLTISSLQPEDFATYYCLQDFNYPYTFGQGTKLEIK
# notes: also called anti-CD30L antibody clone 1 (parental)
# B5: anti-CD30L antibody clone 80 (antibody, V domains shown)
# VH: EVQLVESGGGLVQPGGSLRLSCEVSGFTFSSYDMHWVRQVTGTGLEWVSSIGIGGDTYYPGSVKGRFTISRENAKNSLYLQMNSLRGGDTGVYYCARGEWDLLWYFMDVWGKGTTVTVSS
# VL: B1 VL with V15I, N31S, H32W, F36Y, S46L, K61R, Y91A, V92N, T93S, Y94F
# notes: purified recombinant IgG, mouse strain #1
# B6: anti-CD30L Reference 1 antibody (antibody, human IgG1, lambda, V domains shown)
# VH: QVQLQESGPGLVKPSETLSLTCTVSGGSISSYIWSWIRQPAGKGLEWIGRIYASGNTNYNPSLKSRVTISVDTSKNQFSLKLSSMTAADTAVYYCARDYRVAGTYYYYYGLDVWGQGTTVTVSS
# VL: QSALTQPASVSGSPGQSITISCTGTSSDVGVYDYVSWYQQHPGKAPKLMIYEVSNRPSGVSNRFSGSKSGNTASLTISGLQTEDEADYYCSSYTSRSTWVFGGGTKLTVLG
# B7: Clone 2, Mouse IgG (antibody, V domains shown)
# VH: B1 VH
# VL: B1 VL
# B8: Clone 2, Human IgG1 (antibody, V domains shown)
# VH: B1 VH
# VL: B1 VL
# B9: Clone 1, Mouse IgG (antibody, V domains shown)
# VH: B3 VH
# VL: B4 VL
# B10: Clone 1, Human IgG1 (antibody, V domains shown)
# VH: B3 VH
# VL: B4 VL
# Target: T3, recombinant cynomolgus CD30L protein (cynomolgus)
# T3 construct: Recombinant protein of the ELISA; also called cyCD30L; cyno CD30L
# Assay: ELISA, cyCD30L, 1/5000 dil
row,Elisa Binding (OD),Binder
1,1.23,B1
2,0.583,B2
3,0.552,B3
4,1.16,B4

# Target: T3, recombinant cynomolgus CD30L protein
# Assay: ELISA, cyCD30L, 1/50 dil
row,Elisa Binding (OD),Binder
1,3.76,B1
2,2.58,B2
3,3.2,B3
4,2.83,B4

# Target: T3, recombinant cynomolgus CD30L protein
# Assay: ELISA, cyCD30L, 1/500 dil
row,Elisa Binding (OD),Binder
1,3.18,B1
2,2.38,B2
3,2.35,B3
4,2.87,B4

# Target: T1, recombinant human CD30L
# Assay: ELISA on rhCD30L, OD 450 nm against Ab (nM)
row,EC50 (read off the curve) [nM],Binder
1,~0.1,B5

# Target: T2, human CD30L expressed on B16 cells
# Assay: flow cytometry on B16-huCD30L cells, MFI against Ab (nM)
row,EC50 (read off the curve) [nM],Binder
1,~2,B5

# Target: cynomolgus CD30L on HEK293 cells (cynomolgus)
# Assay: cell-based or functional assay
row,Inhibition of IL-8 release in a dual cell assay (HEK293-cyCD30L cells + K299 cells) IC50 [nM],Binder
1,0.68,B6
2,0.46,B7
3,0.24,B8
4,0.55,B9
5,0.22,B10
